Residue numbers refer to the chain shown, from its start. Names may count otherwise.

2 molecules from patent US6740739B1, “Substitutional variants of APO-2 ligand” (Genentech, Inc., priority 1998, dated 2004) can be followed below.

One test deals with SK-MES-1 cells. Put plainly: Apoptosis bioassay with crystal violet staining. Particulars: 24 hours, FIGS. 17 and 18. The format is cell-based, human. As for the experimental part: SK-MES-1 human lungcarcinomacells (ATCCHTB 58) were culturedin DMEM:Ham'sF-12 (50:50) media supplemented with 10% FBS, 2 mM L-glutamine, 100 U/ml penicillin, and 100 microgram streptomycin. SK-MES-1 cells were seeded in 96-well Falcon tissue culture treated microplates in a volume of 0.1 ml at a density of 4.0×10^4 cells/well and allowed to attach overnight at 37° C. Apoptosis was induced by adding the various Apo-2L substitutional variants or Apo-2L (consisting of amino acids 91-281 of FIG. 1A; referred to as Apo-2L.2) for 24 hours. Following treatment with the test proteins, the media was removed and the wells were stained for 15 minutes with a 0.5% solution of crystal violet in methanol. The cell number was determined by measuring optical density of the dry plates at 540 nm using a SLT 340 ATC plate reader (Salzburg, Austria).

In a further test the target is T1, DR4 (Homo sapiens, UniProt O00220).
T1 construct: Each of the Apo-2L receptor proteins were prepared as immuno adhesin sessentially as described in Ashkenazi et al; made in house
Kind of test: BIAcore kinetic binding analysis. The settings on record: IgG-receptor fusion DR4 immobilized; significant = >2-fold; FIG. 19. As for the experimental part:
(§1) For comparison, Apo-2L, consisting of amino acids 91-281 was also tested in the BIAcore for binding to the IgG-receptor fusion molecules. Each of the Apo-2L receptor proteins were prepared as immuno adhesin sessentially as described in Ashkenazi et al., Proc. Natl. Acad. Sci., 88:10535-10539 (1991). The IgG-receptor fusion molecules were immobilized to the CM5 BIAcore chip, research grade (Pharmacia), using NHS-EDC amine coupling chemistry. The Apo-2L alanine-substituted proteins were serially diluted 2-fold from 500 nM to 15.625 nM in the BIAcore running buffer, PBS/0.05% Tween 20, and passed across the sensor chip surface with immobilized receptor. Specific kinetic binding parameters were used to determine the KD value using the BIAcore evaluation software (according to manufacturer's instructions).
For orientation: In SPR one partner is held on a chip, and binding of the other changes the refractive index at the surface.

A further test deals with T2, DcR2 (Homo sapiens, UniProt Q9UBN6).
T2 construct: Each of the Apo-2L receptor proteins were prepared as immuno adhesin sessentially as described in Ashkenazi et al; made in house
T2 sequence (Q9UBN6 56-211 limits assumed): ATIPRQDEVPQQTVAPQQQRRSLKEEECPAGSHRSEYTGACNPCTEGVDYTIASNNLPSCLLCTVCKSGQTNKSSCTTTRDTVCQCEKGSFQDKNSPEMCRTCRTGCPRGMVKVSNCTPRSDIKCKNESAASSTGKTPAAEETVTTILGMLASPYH
Kind of test: BIAcore kinetic binding analysis. The settings on record: IgG-receptor fusion DcR2 immobilized; significant = >2-fold; FIG. 19. The protocol: as §1

For the next test, the target named is T3, OPG (Homo sapiens, UniProt O00300).
T3 construct: made in house
T3 sequence (O00300 22-401): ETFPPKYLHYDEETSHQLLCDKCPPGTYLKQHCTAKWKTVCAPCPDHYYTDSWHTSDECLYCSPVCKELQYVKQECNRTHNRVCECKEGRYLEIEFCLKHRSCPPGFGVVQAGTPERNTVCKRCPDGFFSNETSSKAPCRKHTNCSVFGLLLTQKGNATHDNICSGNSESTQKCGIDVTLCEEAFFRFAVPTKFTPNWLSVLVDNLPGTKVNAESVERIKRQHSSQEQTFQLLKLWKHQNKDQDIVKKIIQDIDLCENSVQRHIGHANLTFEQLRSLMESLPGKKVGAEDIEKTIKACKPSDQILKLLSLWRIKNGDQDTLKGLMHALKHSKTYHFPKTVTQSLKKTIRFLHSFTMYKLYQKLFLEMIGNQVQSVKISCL
Kind of test: BIAcore kinetic binding analysis. Particulars: OPGR-IgG immobilized; FIG. 19. As for the experimental part:
as §1

The target of a further test is T4, DR5 (Homo sapiens, UniProt O14763).
T4 construct: Each of the Apo-2L receptor proteins were prepared as immuno adhesin sessentially as described in Ashkenazi et al; made in house
Put plainly: BIAcore kinetic binding analysis. Particulars: IgG-receptor fusion DR5 immobilized; significant = >2-fold; FIG. 19. The protocol:
as §1

T1 sequence (O00220 24-239 limits assumed): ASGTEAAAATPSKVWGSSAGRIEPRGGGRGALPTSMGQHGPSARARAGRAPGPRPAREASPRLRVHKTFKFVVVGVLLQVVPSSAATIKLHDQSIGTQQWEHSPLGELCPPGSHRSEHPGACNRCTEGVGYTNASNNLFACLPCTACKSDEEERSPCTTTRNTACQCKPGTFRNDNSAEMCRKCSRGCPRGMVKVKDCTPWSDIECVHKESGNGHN
T4 sequence (O14763 56-184 limits assumed): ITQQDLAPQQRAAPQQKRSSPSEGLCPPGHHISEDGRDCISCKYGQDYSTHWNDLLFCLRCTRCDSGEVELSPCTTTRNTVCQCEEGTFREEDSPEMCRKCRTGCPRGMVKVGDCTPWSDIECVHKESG

B1: D218A: Apo-2 ligand amino acids 91-281 with aspartic acid at position 218 substituted by alanine (protein)
chain: MAMMEVQGGPSLGQTCVLIVIFTVLLQSLCVAVTYVYFTNELKQMQDKYSKSGIACFLKEDDSYWDPNDEESMNSPCWQVKWQLRQLVRKMILRTSEETISTVQEKQQNISPLVRERGPQRVAAHITGTRGRSNTLSSPNSKNEKALGRKINSWESSRSGHSFLSNLHLRNGELVIHEKGFYYIYSQTYFRFQEEIKENTKNDKQMVQYIYKYTSYPAPILLMKSARNSCWSKDAEYGLYSIYQGGIFELKENDRIFVSVTNEHLIDMDHEASFFGAFLVG
With B1, in the test on SK-MES-1 cells, the “increased apoptosis-inducing activity when compared to Apo-2L.2” value is “approximately 3 fold”. Besides, the “change in binding (KD) compared to Apo-2L.2” value with DR4, with DcR2 and with DR5 was “no significant change” throughout. Further, the “binding to OPGR-IgG compared to Apo-2L.2” value with OPG is “tighter binding”.

B2: D269A: Apo-2 ligand amino acids 91-281 with aspartic acid at position 269 substituted by alanine (protein)
chain: B1 chain with A218D, D269A
For B2, the “increased apoptosis-inducing activity when compared to Apo-2L.2” value with SK-MES-1 cells is listed as ~7 fold. The “change in binding (KD) compared to Apo-2L.2” value with DR4, with DcR2 and with DR5 was “no significant change” throughout. In addition, in the test with OPG, the “binding to OPGR-IgG compared to Apo-2L.2” value is “tighter binding”.
